Measurements: article PMC5073337

How the values were obtained:
[1] = biological target: SUMO2, full-length mouse, adenovirally overexpressed (mouse) (UniProt P61957); test: proximity ligation; fixed NRVCM; primary antibodies against SUMO2/3 (Abcam, mouse) and CnA (Upstate, rabbit); cells infected with Ad LacZ, Ad S2 or Ad S2ΔGG with or without Ad ΔCnA; read-out: percentage of PLA-positive nuclei
[2] = biological target: SUMO2ΔGG, diglycine-deficient mouse SUMO2 mutant, adenovirally overexpressed (mouse) (UniProt P61957); test: as above

| Substance | increase of PLA signal on overexpression [1] [%] | increase of PLA signal on overexpression [2] [%] | PLA signal (percent) [1] [%] | PLA signal (percent) [2] [%] |
| --- | --- | --- | --- | --- |
| calcineurin A (endogenous, rat) (from UniProt P63329 1-521) (natural protein) | 14 | 17 |  |  |
| constitutively active calcineurin A (from UniProt P63328 1-521) (enzyme) |  |  | 64 | 54 |
